Results taken from patent publication US20240200044, “EVOLUTION OF TALENS” (President and Fellows of Harvard College, published 2024).

B1: Zif268 consensus site (dsDNA)
DNA 1: GCGTGGGCG
DNA 2: CGCCCACGC
B2: ATM left half-site 5'A (dsDNA)
DNA 1: AGAATTGGGATGCTGTTT
DNA 2: AAACAGCATCCCAATTCT
modifications: [1 (T>A)]
B3: ATM left half-site on-target (dsDNA)
DNA 1: TGAATTGGGATGCTGTTT
DNA 2: AAACAGCATCCCAATTCA

Columns and labels:
[1] = molecular target: omega-Zif268-DBD fusion (Mus musculus, UniProt P08046 SEQ:103-190); assay: one_hybrid; pIII-luciferase induction, site at -62, E. coli
[2] = molecular target: ATM-L-directed TALE-omega K59E (synthetic construct, K59E); assay: one_hybrid; versus canonical ATM-L TALE; conditions: tags: N-terminal FLAG-NLS, C-terminal RNAP omega

Binder | binding signal [1] | binding signal [2]
B1 | ≥ 10 fold | 
B2 |  | 2 fold increase
B3 |  | 1.5 fold increase
